Target: T1, CD20 antigen on the surface of Daudi and Raji B lymphoma cells (human, UniProt P11836 1-297)
T1 sequence (looked up): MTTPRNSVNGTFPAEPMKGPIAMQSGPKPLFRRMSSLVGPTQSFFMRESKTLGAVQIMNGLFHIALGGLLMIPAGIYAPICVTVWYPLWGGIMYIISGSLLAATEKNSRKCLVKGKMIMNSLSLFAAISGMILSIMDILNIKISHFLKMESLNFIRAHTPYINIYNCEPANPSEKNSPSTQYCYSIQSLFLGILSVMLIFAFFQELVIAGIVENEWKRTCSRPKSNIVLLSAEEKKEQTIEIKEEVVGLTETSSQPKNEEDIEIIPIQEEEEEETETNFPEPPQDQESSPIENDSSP
Test: cell-based or functional assay

B1: recombinant afucosylated anti-human CD20 monoclonal antibody prepared in Example 2 (expressed in the milk of a transgenic cow) (antibody, human IgG1, kappa)
heavy: not shown
light: QIVLSQSPAILSASPGEKVTMTCRASSSVSYIHWFQQKPGSSPKPWIYATSNLASGVPVRFSGSGSGTSYSLTISRVEAEDAATYYCQQWTSNPPTFGGGTKLEIKRTVAAPSVFIFPPSDEQLKSGTASVVCLLNNFYPREAKVQWKVDNALQSGNSQESVTEQDSKDSTYSLSSTLTLSKADYEKHKVYACEVTHQGLSSPVTKSFNRGEC
modifications: N-linked sugar chain at Asn-320, mainly afucosylated glycoform (80% to 100%), of which the G2 glycoform is 30% to 100%
EC50 (read off the curve): ADCC, percentage of cell lysis (LDH release), NK92/CD16a (158 V/V) effector cells, CD20-bearing B lymphoma target cells: ~0.5 ng/mL

— patent US20200270358A1 (BEIJING GEFUCURE BIOTECHNOLOGY, published 2020)
